Source: PMC7949104

Target: E5 C77S mutant
Assay: SEC; analytical gel filtration, Superdex 75 10/300 GL, 0.5 ml/min, 50 mM phosphate buffer with 150 mM NaCl, in the presence of a reducing agent; mass from protein standards

**Q.** How did the stoichiometry N turn out when E5 C77S mutant (enzyme) was run?
**A.** 6
